The values below come from US20120195893A1 (UNITED STATES OF AMERICA AS REPRESENTED BY THE SECRETARY OF …, published 2012).

For the test, the target named is T1, mouse DEC205 receptor (mouse, UniProt Q60767 28-1723).
T1 construct: whole, on cells; also called DEC25 receptor; CD205
Kind of test: flow cytometry on DEC205-transfected A204 cells.

B1: PyTh1 chimeric molecule (other)
heavy: EVKLLESGGGLVQPGGSLRLSCAASGFTFNDFYMNWIRQPPGQAPEWLGVIRNKGNGYTTEVNTSVKGRFTISRDNTQNILYLQMNSLRAEDTAIYYCARGGPYYYSGDDAPYWGQGVMVTVSSAKTTAPSVYPLAPVCGDTTGSSVTLGCLVKGYFPEPVTLTWNSGSLSSGVHTFPAVLQSDLYTLSSSVTVTSSTWPSQSITCNVAHPASSTKVDKKIEPRGPTIKPCPPCKCPAPNLLGGPSVFIFPPKIKDVLMISLSPIVTCVVVDVSEDDPDVQISWFVNNVEVHTAQTQTHREDYNSTLRVVSALPIQHQDWMSGKEFKCKVNNKDLPAPIERTISKPKGSVRAPQVYVLPPPEEEMTKKQVTLTCMVTDFMPEDIYVEWTNNGKTELNYKNTEPVLDSDGSYFMYSKLRVEKKNWVERNSYSCSVVHEGLHNHHTTKSFSQTPGKGGGGSGGGGSGGGGSVDEQLSKSVKDKVLLPCRYNSPHEDECEDRIYWQKHDKVVLSVIAGKLKVWPEYKNRTLYDNTTYSLIILGLVLSDRGTYSCVVQKKERGTYEVKHLALVKLSIKADFSTPNITESGNPSADTKRITCFASGGFPKPRFSWLENGRELPGINTTISQDPESELYTISSQLDFNTTRNHTIKCLIKYGDAHVSEDFTWEKPPEDPPDSK
light: DIQMTQSPSFLSTSLGNSITITCHASQNIKGWLAWYQQKSGNAPQLLIYKASSLQSGVPSRFSGSGSGTDYIFTISNLQPEDIATYYCQHYQSFPWTFGGGTKLELKRDAAPTVSIFPPSSEQLTSGGASVVCFLNNFYPKDINVKWKIDGSERQNGVLNSWTDQDSKDSTYSMSSTLTLTKDEYERHNSYTCEATHKTSTSPIVKSFNRNECGGGGSGGGGMGGGGSYNRNIVNRLLGDALNGKPEEK
notes: Mouse IgG2a scaffold with the variable domains of rat anti-mouse DEC205, made in SP20 myeloma cells; also called PhyTh1; PyTh1 vaccine
B1: the binding result is reported as “binds”.
